For orientation: Kd means the concentration at which binding is half-saturated.

Drawing on paper PMC7218058 (2020), this text covers Kd for 2 molecules.

The target of experiment [1] is IgG2 allotypes (anti-RhD). Kind of experiment: SPR. (Surface plasmon resonance follows binding to a sensor surface in real time, without labels.)
Experiment [2] has as its target IgG4 allotypes (anti-RhD). The experiment in a line: SPR.

B1: human FcγRIa (his tag) (receptor)
chain: QVDTTKAVITLQPPWVSVFQEETVTLHCEVLHLPGSSSTQWFLNGTATQTSTPSYRITSASVNDSGEYRCQRGLSGRSDPIQLEIHRGWLLLQVSSRVFTEGEPLALRCHAWKDKLVYNVLYYRNGKAFKFFHWNSNLTILKTNISHNGTYHCSGMGKHRYTSAGISVTVKELFPAPVLNASVTSPLLEGNLVTLSCETKLLLQRPGLQLYFSFYMGSKTLRGRNTSSEYQILTARREDSGLYWCEAATEDGNVLKRSPELELQVLGLQLPTPVWFH
As to B1, the Kd in experiment [1] is more than 1000 nM.

B2: human FcγRIIa 131His, biotinylated (receptor)
chain: QAAAPPKAVLKLEPPWINVLQEDSVTLTCQGARSPESDSIQWFHNGNLIPTHTQPSYRFKANNNDSGEYTCQTGQTSLSDPVHLTVLSEWLVLQTPHLEFQEGETIMLRCHSWKDKPLVKVTFFQNGKSQKFSHLDPTFSIPQANHSHSGDYHCTGNIGYTLFSSKPVTITVQVPSMGSSSPMG
modifications: biotin
Take B2: the Kd in experiment [2] is more than 1000 nM.
